The results in this text go back to US20150118698A1.

This experiment has as its target monoclonal antibody NB206-15B6-F8, raised against MMCN-151 antigen. Description: competitive ELISA on Biotin-… coated plate. (In general: In an ELISA, binding on a coated surface is turned into a signal by an enzyme label.)

Take EDIEDGTFSK [synthetic free peptide … (MMCN-151)]: the OD (450-650), signal at full inhibition was 0.5 OD (450-650) and the OD (450-650), signal without inhibition was 2 OD (450-650).
